{
  "source": "patent US20180112193A1",
  "about": "“CSF1 THERAPEUTICS” (University Court Of The University Of Edinburgh, priority 2013, published 2018)",
  "key": {"mouse bone marrow cells": {"test_system": "mouse bone marrow cells", "test": "Proliferation of mouse bone marrow cells", "format": "cell-based", "settings": "data not shown", "procedure": "(§1) Stable Ba/F3 cells expressing porcine CSF-1R were maintained in culture with complete RPMI supplemented with either 10^4 Units/ml rh-CSF-1 or 10% IL-3 conditioned medium prior to MTT assay. 2×10^4 cells/well (Ba/F3 cells and Ba/F3 transfectants), or 5×10^4 cells/well (pig BMM) of a 96 well plate were plated in triplicate or quadruplicate and appropriate treatment (serial dilutions of rh-CSF-1 or porcine Fc CSF-1 were added to make a total volume of 100 μl per well. Cells were incubated for 48 hours at 37° C. with 5% CO2. For Ba/F3 cells, 10 μl of MTT (Sigma Aldrich M5655) stock solution (5 mg/ml) was added directly to each well to achieve a final concentration of 0.5 mg/ml and incubated at 37° C. for 3 hours prior to solubilisation overnight. For adherent mouse BMM cells, culture medium was replaced with 50 μl of 1 mg/ml MTT solution and incubated for 1 hour at 37° C. MTT solution was removed and tetrazolium salt solubilised with 100 μl of solubilisation agent (0.1M HCL, 10% Triton x-100 and isopropanol) followed by incubation at 37° C. with 5% CO2 for 10 minutes. Plates were read at 570 nm with reference wavelength of 405 nm.\n(§2) Mice were injected with Fc-CSF-1 subcutaneously on each of 4 days and sacrificed on the 5th day. The mice were csf1r-EGFP (MacGreen) mice on the C57BI/6 background. […]"}, "Pig PK (plasma ELISA)": {"test": "Pig PK (plasma ELISA)", "format": "in vivo", "settings": "weaner pigs; 1.2 mg/kg IV and SC", "procedure": "Porcine CSF-1 Fc-fusion plasma levels were detected using an in-house developed conventional sandwich ELISA utilizing commercially available antibodies. Capture antibody was Abcam ab9693 (0.3 μg/mL) and detection antibody was Rabbit anti-pig IgG (Fc) biotinylated Alpha Diagnostic 90440 (1:5000 dilution). Standard protein was generated and purified in-house (lot 2/24/11 JAS). Standards were added to each plate along with the samples resulting in an 11 point standard range of 2700 ng/mL to […]. This allowed for quantitation of each sample to a standard curve on every assay plate. Assay detection was done using Pierce High Sensitivity Streptavidin-HRP (1:10,000 dilution) and TMB Microwell Peroxidase Substrate System solution (KPL).\nWeaner age barrows (<14 kg) were assigned to three treatment groups receiving a single intravenous (IV) or subcutaneous (SC) dose as follows. Three pigs received 0.5 mg/kg CSF-1 non-fusion dosed SC. Two pigs received 1.2 mg/kg CSF-1:Fc fusion dosed IV. Two pigs received 1.2 mg/kg CSF-1:Fc dosed SC. One ml plasma samples were obtained via the V. jugularis in EDTA anticoagulant tubes and placed on ice until centrifuged. The plasma was transferred to sterile tubes stored at ≤−10° C. until analysis. Serial plasma samples were obtained from each animal at pre-dose and 5 minutes, 30 minutes, 1 hour, 2 hours, 4 hours, 6 hours, 8, hours, 24 hours, 48 hours, and 72 hours post-dose. CSF-1 and CSF-1:Fc fusion protein levels were quantitated in plasma using ELISA assays."}, "male C57BI6 mice": {"test_system": "male C57BI6 mice", "test": "Paracetamol intoxication in mice", "format": "in vivo, mouse", "settings": "administered 12 hours following paracetamol intoxication; Day 4", "procedure": "Forty-eight male C57BI6 mice aged 10-12 weeks underwent either 2/3 partial hepatectomy, paracetamol intoxication or chronic liver injury plus 2/3 partial hepatectomy. 2/3 partial hepatectomy was performed by ligating the left lobe and left and right median lobes. Paracetamol intoxication was performed by intraperitoneal administration of 350 mg/kg paracetamol dissolved in phosphate buffered saline (PBS). Chronic liver injury plus 2/3 partial hepatectomy was performed by eight weeks intraperitoneal carbon tetrachloride administration 1 mcl/g twice weekly dissolved in olive oil followed by ⅔ partial hepatectomy as described above. […] Control mice (n=8 per injury model) received subcutaneous PBS of appropriate volume. All mice were culled on day 4 following injury (partial hepatectomy or paracetamol intoxication).\nFollowing a midline laparotomy the liver was excised and weighed. Liver weight to body weight ratio was calculated and expressed as a percentage. Livers were fixed in 4% formalin overnight then transferred to 70% ethanol. Livers were then embedded in paraffin blocks and 4 μm sections cut. Immunohistochemistry for Ki67 (a marker of cellular proliferation expressed throughout the cell cycle) was performed following heat mediated antigen retrieval in Tris/EDTA solution at pH9. Hepatocyte proliferation was quantified by counting ki67 positive hepatocytes in 20 high powered fields (400×) per animal and the mean calculated.\nHepatic CSF1 gene expression was assessed in mice following paracetamol intoxication (350 mg/kg paracetamol IP following overnight fast) at time points up to 4 days, showing peak CSF1 gene expression at day 2 (FIG. 14A)."}, "[1]": {"test_system": "csf1r-EGFP (MacGreen) mice", "test": "Fc-CSF-1 injected subcutaneously into csf1r-EGFP mice on 4 days, sacrificed on the 5th day", "format": "in vivo, mouse", "procedure": "Mice were injected with Fc-CSF-1 subcutaneously on each of 4 days and sacrificed on the 5th day. The mice were csf1r-EGFP (MacGreen) mice on the C57BI/6 background. Tissue processing and immunohistochemistry were carried out as described in (Alikhan et al Am J. Pathol. 179, 1243-1256, 2011 and Macdonald et al Blood. 116, 3955-3963, 2010). A comparison of the effect of recombinant pig CSF-1 or Fc-CSF-1 on the proliferation of mouse bone marrow cells or the Ba/F3 CS1R reporter cell line using the assay described in Gow et al Cytokine."}, "[2]": {"test_system": "Ba/F3 CS1R reporter cell line", "test": "Proliferation of Ba/F3 CS1R reporter cell line (MTT cell viability assay)", "format": "cell-based, porcine", "settings": "data not shown", "procedure": "as §1, §2"}, "[3]": {"settings": "1 mg/kg, whole group or segregated for male or female"}},
  "data": [
    {"molecule": "Fc-CSF-1: active fragment of porcine CSF-1 (SEQ ID NO:1) linked to the hinge-CH3 region of porcine IgG1a (SEQ ID NO:2) (protein, listed as Sus scrofa) SENCSHMIGDGHLKVLQQLIDSQMETSCQIAFEFVDQEQLTDPVCYLKKAFLQVQDILDETMRFRDNTPNANVIVQLQELSLRLNSCFTKDYEEQDKACVRTFYETPLQLLEKIKNVFNETKNLLKKDWNIFSKNCNNSFAKCSSQHERQPEGRGTKTKPPCPICPGCEVAGPSVFIFPPKPKDTLMISQTPEVTCVVVDVSKEHAEVQFSWYVDGVEVHTAETRPKEEQFNSTYRVVSVLPIQHQDWLKGKEFKCKVNNVDLPAPITRTISKAIGQSREPQVYTLPPPAEELSRSKVTVTCLVIGFYPPDIHVEWKSNGQPEPEGNYRTTPPQQDVDGTFFLYSKLAVDKARWDHGETFECAVMHEALHNHYTQKSISKTQGK", "values": [
      {"measurement": "biological activity (proliferation) compared with recombinant pig CSF-1", "setting": "mouse bone marrow cells", "result": "no difference in biological activity"},
      {"measurement": "plasma concentrations relative to unmodified CSF-1", "setting": "Pig PK (plasma ELISA)", "result": 100, "unit": "fold"},
      {"measurement": "time plasma level remains elevated", "setting": "Pig PK (plasma ELISA)", "result": "up to 72 hours"},
      {"measurement": "hepatocyte proliferation", "setting": "male C57BI6 mice", "result": "increasing"},
      {"measurement": "liver weight to body weight ratio", "setting": "male C57BI6 mice", "result": "significantly increasing"},
      {"measurement": "body weight, dose response curve", "setting": "[1]; 0.1 mg/kg", "result": "detectable activity"},
      {"measurement": "total body weight", "setting": "[1]; 1 mg/kg", "result": "clearly increased total body weight"},
      {"measurement": "total liver weight", "setting": "[1]; 1 mg/kg", "result": "significantly increased"},
      {"measurement": "weight of the spleen", "setting": "[1]; 1 mg/kg", "result": "almost doubled"},
      {"measurement": "weight of the kidney", "setting": "[1]; [3]", "result": "no effect"},
      {"measurement": "weight of the lung", "setting": "[1]; [3]", "result": "no effect"},
      {"measurement": "segmented neutrophil counts", "setting": "[1]; blood", "result": "increases"},
      {"measurement": "total lymphocytes", "setting": "[1]; blood", "result": "no effect"},
      {"measurement": "total blood monocyte count", "setting": "[1]; blood, both sexes", "result": "elevates"},
      {"measurement": "white blood cell count", "setting": "[1]; blood, both sexes", "result": "elevates"},
      {"measurement": "bone resorbing osteoclasts in bone", "setting": "[1]; growth plate, zone of resorption and shaft, data not shown", "result": "increase"},
      {"measurement": "increase in abundance of macrophage-specific genes (csf1r, emr1 (F4/80))", "setting": "[1]; liver, Affymetrix microarrays", "result": "4-8 fold"},
      {"measurement": "induction of classical inflammatory genes such as TNF-a, IL-6 or IL-1", "setting": "[1]; liver, Affymetrix microarrays", "result": "no evidence of induction"},
      {"measurement": "cell proliferation in liver, PCNA immunostaining", "setting": "[1]; liver, proliferating cells identified as hepatocytes", "result": "extensive cell proliferation"},
      {"measurement": "macrophage numbers in liver, F4/80 immunostaining", "setting": "[1]; liver, vs PBS control", "result": "large increase in macrophage numbers"},
      {"measurement": "numbers of macrophages in the spleen, csf1r-EGFP reporter fluorescence", "setting": "[1]; spleen, treated vs control", "result": "greatly increased fluorescence"},
      {"measurement": "macrophage numbers and F4/80 intensity in spleen, immunostaining", "setting": "[1]; spleen, vs PBS control", "result": "large increase in macrophage numbers and also intensity of F4/80"},
      {"measurement": "biological activity (proliferation) compared with recombinant pig CSF-1", "setting": "[2]", "result": "no difference in biological activity"}
    ]}
  ]
}
